In patent US20260241049A1, “Radiopharmaceutical Compositions Targeting Glypican-3 and Uses Thereof” (RayzeBio, Inc., priority 2023, published 2026):
Starred links: 1 amine or outer side, 2 acyl side, 3 side chain; linkers in the order of their positions; H or OH if unused. Positions of bridges follow the written chain, without caps; N, C: chain ends. Non-standard residues stand in square brackets, D forms with d. Groups on a side chain read outwards from the residue. Primed or numbered codes have the meaning given here. *: point of attachment. F4amCOpipzaa = 2-amino-3-(4-((4-(carboxymethyl)piperazine-1-carboxamido)methyl)phenyl)propanoic acid, O=C(NCc1ccc(C[C@H](N[*:1])C(=O)[*:2])cc1)N1CCN(CC(=O)[*:3])CC1; F4aaopipzaa = 2-amino-3-(4-(2-(4-(carboxymethyl)piperazin-1-yl)-2-oxoethoxy)phenyl)propanoic acid, O=C(COc1ccc(C[C@H](N[*:1])C(=O)[*:2])cc1)N1CCN(CC(=O)[*:3])CC1; F4aao(3) = 4-(carboxymethoxy)-L-phenylalanine ((S)-2-amino-3-(4-(carboxymethoxy)phenyl)propanoic acid), O=C([C@H](Cc1ccc(OCC(=O)[*:3])cc1)N[*:1])[*:2]; DOTA‑Lu = DOTA-lutetium(175) amide on the side-chain amine, O=C([O-])CN1CCN(CC(=O)[O-])CCN(CC(=O)*)CCN(CC(=O)[O-])CC1.[175Lu+3]; Thr(Me) = O-methyl threonine, (3R)-2-amino-3-methoxybutanoic acid, CO[C@H](C)[C@H](N[*:1])C(=O)[*:2]; F4aao = 4-(carboxymethoxy)-L-phenylalanine, O=C([C@H](Cc1ccc(OCC(=O)[*:3])cc1)N[*:1])[*:2]; F4aao(4) = 4-(carboxymethoxy)phenylalanine, O=C([C@H](Cc1ccc(OCC(=O)[*:3])cc1)N[*:1])[*:2]; MeHseMe(6) = (2S)-4-methoxy-2-(methylamino)butanoic acid, COCC[C@@H](C(=O)[*:2])N(C)[*:1]; MeHseMe = N-methyl-O-methyl-L-homoserine, COCC[C@@H](C(=O)[*:2])N(C)[*:1]; Thr(Me)(3) = TMe, O-methyl-L-threonine, CO[C@H](C)[C@H](N[*:1])C(=O)[*:2]; Phe(4-(1-Me-pyrazol-4-yl)) = Cn1cc(-c2ccc(C[C@H](N)C(=O)O)cc2)cn1; DOTA‑Lu(3) = DOTA chelate with cold lutetium-175, amide-linked; TMe = O-methyl-L-threonine, CO[C@H](C)[C@H](N[*:1])C(=O)[*:2]; NMeAla(isoquinolin-7-yl) = CN[C@@H](Cc1ccc2ccncc2c1)C(=O)O; Phe(4-CH2COOH) = N[C@@H](Cc1ccc(CC(=O)O)cc1)C(=O)O; Phe(4-NHCONH2) = NC(=O)Nc1ccc(C[C@H](N)C(=O)O)cc1; 3Pal(6-Ph) = N[C@@H](Cc1ccc(-c2ccccc2)nc1)C(=O)O; Phe(4-COOH) = N[C@@H](Cc1ccc(C(=O)O)cc1)C(=O)O; NMe2Nal = CN[C@@H](Cc1ccc2ccccc2c1)C(=O)O; NMeI = CC[C@H](C)[C@H](NC)C(=O)O; NMeQ = CN[C@@H](CCC(N)=O)C(=O)O; NMeK = CN[C@@H](CCCCN)C(=O)O; NMeC = CN[C@@H](CS)C(=O)O

B1: Macrocyclic peptide of Example 2-18 (SEQ ID No. 36) (peptide)
peptide: {CH2CO}-[NMeQ][MeHseMe]D[NMeQ][Phe(4-COOH)][Thr(Me)(3)]I[F4aao][NMeAla(isoquinolin-7-yl)]G[Phe(4-(1-Me-pyrazol-4-yl))][NMeC]-NH2
modifications: thioether N-12
SMILES: CC[C@H](C)[C@@H]1NC(=O)[C@H]([C@@H](C)OC)NC(=O)[C@H](Cc2ccc(C(=O)O)cc2)NC(=O)[C@H](CCC(N)=O)N(C)C(=O)[C@H](CC(=O)O)NC(=O)[C@H](CCOC)N(C)C(=O)[C@H](CCC(N)=O)N(C)C(=O)CSC[C@@H](C(N)=O)N(C)C(=O)[C@H](Cc2ccc(-c3cnn(C)c3)cc2)NC(=O)CNC(=O)[C@H](Cc2ccc3ccncc3c2)N(C)C(=O)[C@H](Cc2ccc(OCC(=O)O)cc2)NC1=O
B2: Macrocyclic peptide of Example 2-20 (SEQ ID No. 38) (peptide)
peptide: {CH2CO}-[NMeQ][MeHseMe]D[NMeQ][Phe(4-COOH)][Thr(Me)]I[F4amCOpipzaa][NMe2Nal]G[3Pal(6-Ph)][NMeC]-NH2
modifications: thioether N-12
SMILES: CC[C@H](C)[C@@H]1NC(=O)[C@H]([C@@H](C)OC)NC(=O)[C@H](Cc2ccc(C(=O)O)cc2)NC(=O)[C@H](CCC(N)=O)N(C)C(=O)[C@H](CC(=O)O)NC(=O)[C@H](CCOC)N(C)C(=O)[C@H](CCC(N)=O)N(C)C(=O)CSC[C@@H](C(N)=O)N(C)C(=O)[C@H](Cc2ccc(-c3ccccc3)nc2)NC(=O)CNC(=O)[C@H](Cc2ccc3ccccc3c2)N(C)C(=O)[C@H](Cc2ccc(CNC(=O)N3CCN(CC(=O)O)CC3)cc2)NC1=O
B3: Macrocyclic peptide of Example 2-21 (SEQ ID No. 39) (peptide)
peptide: {CH2CO}-[NMeQ][MeHseMe]D[NMeQ][Phe(4-COOH)][Thr(Me)]I[Phe(4-NHCONH2)][NMe2Nal]G[3Pal(6-Ph)][NMeC]-NH2
modifications: thioether N-12
SMILES: CC[C@H](C)[C@@H]1NC(=O)[C@H]([C@@H](C)OC)NC(=O)[C@H](Cc2ccc(C(=O)O)cc2)NC(=O)[C@H](CCC(N)=O)N(C)C(=O)[C@H](CC(=O)O)NC(=O)[C@H](CCOC)N(C)C(=O)[C@H](CCC(N)=O)N(C)C(=O)CSC[C@@H](C(N)=O)N(C)C(=O)[C@H](Cc2ccc(-c3ccccc3)nc2)NC(=O)CNC(=O)[C@H](Cc2ccc3ccccc3c2)N(C)C(=O)[C@H](Cc2ccc(NC(N)=O)cc2)NC1=O
B4: Macrocyclic peptide of Example 2-22 (SEQ ID No. 40) (peptide)
peptide: {CH2CO}-[NMeQ][MeHseMe]D[NMeQ][Phe(4-COOH)][Thr(Me)(3)]I[F4aaopipzaa][NMe2Nal]G[3Pal(6-Ph)][NMeC]-NH2
modifications: thioether N-12
SMILES: CC[C@H](C)[C@@H]1NC(=O)[C@H]([C@@H](C)OC)NC(=O)[C@H](Cc2ccc(C(=O)O)cc2)NC(=O)[C@H](CCC(N)=O)N(C)C(=O)[C@H](CC(=O)O)NC(=O)[C@H](CCOC)N(C)C(=O)[C@H](CCC(N)=O)N(C)C(=O)CSC[C@@H](C(N)=O)N(C)C(=O)[C@H](Cc2ccc(-c3ccccc3)nc2)NC(=O)CNC(=O)[C@H](Cc2ccc3ccccc3c2)N(C)C(=O)[C@H](Cc2ccc(OCC(=O)N3CCN(CC(=O)O)CC3)cc2)NC1=O
B5: Lu-C-42 (peptide)
peptide: {CH2CO}-K[NMeI]D[NMeQ][Phe(4-COOH)]II[F4aao][NMeAla(isoquinolin-7-yl)]G[3Pal(6-Ph)][NMeC]-NH2
modifications: thioether N-12; not fully specified (residue 1); also: DOTA-Lu: cold Lu-175 complex
B6: Lu-C-35 (peptide)
peptide: KQDQFTIFFGXC
modifications: not fully specified; MeK(DOTA-Lu)-MeQ-D-MeQ-F4COO-TMe-I-F4aao-MeNal27N-G-3Py6Ph-MeC-NH2; thioether ring from N-terminal acetyl to MeC12
B7: Lu-C-31 (peptide)
peptide: Ac-[NMeK](DOTA‑Lu)[NMeI]D[NMeQ][Phe(4-COOH)][TMe]I[F4aao][NMeAla(isoquinolin-7-yl)]G[3Pal(6-Ph)][NMeC][dE]-NH2
modifications: bridge N-12; not fully specified (bridges); printed as MeK(DOTA-Lu)-MeI-D-MeQ-F4COO-TMe-I-F4aao-MeNal27N-G-3Py6Ph-MeC-de-NH2
B8: Macrocyclic peptide of Example 2-14 (SEQ ID No. 17) (peptide)
peptide: {CH2CO}-[NMeQ][NMeQ]D[NMeQ][F4aao(4)]II[Phe(4-COOH)][NMe2Nal]G[Phe(4-(1-Me-pyrazol-4-yl))][NMeC]-NH2
modifications: thioether N-12
SMILES: CC[C@H](C)[C@@H]1NC(=O)[C@H](Cc2ccc(OCC(=O)O)cc2)NC(=O)[C@H](CCC(N)=O)N(C)C(=O)[C@H](CC(=O)O)NC(=O)[C@H](CCC(N)=O)N(C)C(=O)[C@H](CCC(N)=O)N(C)C(=O)CSC[C@@H](C(N)=O)N(C)C(=O)[C@H](Cc2ccc(-c3cnn(C)c3)cc2)NC(=O)CNC(=O)[C@H](Cc2ccc3ccccc3c2)N(C)C(=O)[C@H](Cc2ccc(C(=O)O)cc2)NC(=O)[C@H]([C@@H](C)CC)NC1=O
B9: Macrocyclic peptide of Example 2-16 (SEQ ID No. 19) (peptide)
peptide: {CH2CO}-[NMeQ][NMeQ]D[NMeQ][Phe(4-COOH)]II[Phe(4-CH2COOH)][NMe2Nal]G[Phe(4-(1-Me-pyrazol-4-yl))][NMeC]-NH2
modifications: thioether N-12
SMILES: CC[C@H](C)[C@@H]1NC(=O)[C@H](Cc2ccc(C(=O)O)cc2)NC(=O)[C@H](CCC(N)=O)N(C)C(=O)[C@H](CC(=O)O)NC(=O)[C@H](CCC(N)=O)N(C)C(=O)[C@H](CCC(N)=O)N(C)C(=O)CSC[C@@H](C(N)=O)N(C)C(=O)[C@H](Cc2ccc(-c3cnn(C)c3)cc2)NC(=O)CNC(=O)[C@H](Cc2ccc3ccccc3c2)N(C)C(=O)[C@H](Cc2ccc(CC(=O)O)cc2)NC(=O)[C@H]([C@@H](C)CC)NC1=O
B10: Macrocyclic peptide of Example 2-17 (SEQ ID No. 20) (peptide)
peptide: {CH2CO}-[NMeQ][NMeQ]D[NMeQ][Phe(4-COOH)]II[F4aao][NMe2Nal]G[Phe(4-(1-Me-pyrazol-4-yl))][NMeC]-NH2
modifications: thioether N-12
SMILES: CC[C@H](C)[C@@H]1NC(=O)[C@H](Cc2ccc(C(=O)O)cc2)NC(=O)[C@H](CCC(N)=O)N(C)C(=O)[C@H](CC(=O)O)NC(=O)[C@H](CCC(N)=O)N(C)C(=O)[C@H](CCC(N)=O)N(C)C(=O)CSC[C@@H](C(N)=O)N(C)C(=O)[C@H](Cc2ccc(-c3cnn(C)c3)cc2)NC(=O)CNC(=O)[C@H](Cc2ccc3ccccc3c2)N(C)C(=O)[C@H](Cc2ccc(OCC(=O)O)cc2)NC(=O)[C@H]([C@@H](C)CC)NC1=O

Target: T1, Human Glypican3-Fc (ACRO Biosystems, GP3-H5258) (human, UniProt P51654 25-559)
T1 construct: Bought fusion protein, captured in Methods B-2, B-3 and B-4; Catalogue number is printed only in Method B-2; not shown: Fc part of the bought fusion
Experiment: SPR (Biacore T200), Method B-2: human Glypican3-Fc captured by anti-human Fc on CM3 chip, peptide as analyte
Description: A CM3 sensor chip (Cytiva) was inserted into a Biacore T200 (Cytiva), primed three times with a running buffer: HBS-P-+, pH 7.4 (Cytiva), and equilibrated at a flow rate of 30 μL/min. Using the Anti-Fc Capture Kit (Cytiva), 50 LL each of 60 mM EDC solution (Cytiva) and 650 mM NHS solution (Cytiva) were mixed, and then reacted at a flow rate of 10 μL/min for 420 seconds, 150 μL of […] Anti-human IgG (Fc) Antibody solution was prepared by diluting with 10 mM acetic acid solution (pH 5.0), reacted at a flow rate of 10 μL/min for 420 seconds, and immobilized on a CM3 sensor chip. After immobilization, 1.0 M ethanolamine aqueous solution (Cytiva) was allowed to react for 420 seconds at a flow rate of 10 μL/min for capping. Human Glypican3-Fc (ACRO Biosystems, GP3-H5258) was allowed to react for 60 seconds at a flow rate of 10 μL/min. After capturing human Glypican3-Fc, a peptide solution prepared to 10 mM in DMSO solution was diluted with a running buffer to a final concentration of 10 μM. […] Using the above samples, peptide kinetics for Glypican3 was obtained by SPR measurement. Kinetics evaluation of Glypican3 was performed by SPR measurements at a flow rate of 10 μL/min. setting the association time to 120 seconds and the disassociation time to 600 seconds.
(§1) The obtained data by Method B-1, Method B-2, Method B-3 and Method B-4 were analyzed by follow. Single Cycle Kinetics was used as the kinetics evaluation model, and curve fitting was performed using Biacore T200 Evaluation Software Version 3.0 (Cytiva).

Binder | Kd [nM]
B1 | 3.8
{CH2CO}-[NMeK]([dE-DOTA‑Lu(3)])[NMeI]D[NMeQ][Phe(4-COOH)]II[F4aao(3)][NMeAla(isoquinolin-7-yl)]G[3Pal(6-Ph)][NMeC]-NH2 (thioether N-12) [Lu-C-33] | 0.87
B2 | 0.7
Ac-[NMeK](DOTA‑Lu(3))[MeHseMe(6)]D[NMeQ][Phe(4-COOH)][TMe]IY[NMeAla(isoquinolin-7-yl)]G[3Pal(6-Ph)][NMeC]-NH2 (bridge N-12; not fully specified (bridges); also: cold Lu-175 chelated by DOTA) [Lu-C-45] | 0.74
B3 | 0.4
B4 | 0.8
B5 | 0.67
B6 | 2.03
B7 | 7.05

Target: T2, human Glypican3 (R&D systems, catalog number: 2119-GP) (human, UniProt P51654 25-559, limits assumed)
T2 construct: Bought recombinant protein, amine-coupled to the chip in Method B-1; also called GPC3; hGPC3
Experiment: SPR (Biacore T200), Method B-1: human Glypican3 amine-coupled to CM3 chip, peptide as analyte
Description: A CM3 sensor chip (Cytiva) was inserted into a Biacore T200 (Cytiva), primed three times with a running buffer: HBS-P+, pH 7.4 (Cytiva), and equilibrated at a flow rate of 30 μL/min. Ligand immobilization was performed at a flow rate of 10 μL/min. 50 μL each of 60 mM EDC solution (Cytiva) and 650 mM NHS solution (Cytiva) were mixed, and then reacted at a flow rate of 10 μL/min for 420 seconds, 150 μL of 0.2 μM human Glypican3 (R&D systems, catalog number: 2119-GP) solution which was prepared by diluting with 10 mM acetic acid solution (pH 5.0), was reacted at a flow rate of 10 μL/min for 420 seconds, and Glypican3 was immobilized on the CM3 sensor chip. After immobilization, 1.0 M ethanolamine aqueous solution (Cytiva) was allowed to react for 420 seconds at a flow rate of 10 μL/min for capping. A peptide lysate prepared to 10 mM in DMSO solution was diluted with running buffer to a final concentration of 10 μM peptide lysate. […] Using the above samples, peptide kinetics for Glypican3 was obtained by SPR measurement. Kinetics evaluation of Glypican3 was performed by SPR measurements at a flow rate of 10 μL/min, setting the association time to 120 seconds and the disassociation time to 600 seconds.
as §1

Binder | Kd [nM]
B8 | 4.8
B9 | 3.5
B10 | 1.9
